Test results taken from PMC7225089, “A long lost key opens an ancient lock: Drosophila Myb causes a synthetic multivulval phenotype in nematodes” (Biology Open, 2020).

T1: C. elegans LIN9-LIN52 heterodimeric Myb-binding domain complex (C. elegans, UniProt P30630 442-559; Q10120 75-139)
T1 construct: also called nematode LIN9-LIN52; ceLIN9; source: E. coli, co-expressed, purified (glutathione-sepharose, anion exchange, TEV cleavage, Superdex 200); not shown: GST, N-terminal, cleaved
T1 sequence (looked up) 1: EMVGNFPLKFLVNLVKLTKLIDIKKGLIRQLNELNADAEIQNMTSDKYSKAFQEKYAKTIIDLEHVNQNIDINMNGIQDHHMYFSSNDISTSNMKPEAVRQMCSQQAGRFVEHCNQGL
T1 sequence (looked up) 2: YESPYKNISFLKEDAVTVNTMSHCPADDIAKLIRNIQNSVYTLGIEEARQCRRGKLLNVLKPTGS


Experiments:
[1] = target: T1, C. elegans LIN9-LIN52 heterodimeric …; assay: ITC; Myb fragment (~500 μM) in the syringe injected into LIN9-LIN52 heterodimer (~25–50 μM) at 25°C; 20 mM Tris, 150 mM NaCl, 1 mM beta mercaptoethanol, pH 8.0; MicroCal VP-ITC; triplicate; details: both partners purified
[2] = target: Drosophila LIN9-LIN52 heterodimeric Myb-binding domain complex (D. melanogaster); assay: as above

Binder	Kd [1] [µM]	Kd [2] [µM]
VIDPKWARVACGKSRDQMFMEEQAYACLKNL (domain or fragment, D. melanogaster, UniProt P04197 602-632, looked up, Expressed from the pGEX vector and 'purified as described for the LIN9-LIN52 complex'; also called Drosophila Myb; dmMyb; source: E. coli, purified (glutathione-sepharose, anion exchange, TEV cleavage, Superdex 200); not shown: GST, N-terminal, cleaved) [Drosophila melanogaster Myb MuvB-binding domain (residues 602-632), wild type]	7	3
VIDPAAARVACGKSRDQMFMEEQAYACLKNL (domain or fragment, D. melanogaster, UniProt P04197 602-632, looked up, Expressed from the pGEX vector and 'purified as described for the LIN9-LIN52 complex'; also called KW; source: E. coli, purified (glutathione-sepharose, anion exchange, TEV cleavage, Superdex 200); not shown: GST, N-terminal, cleaved)	70	41
